# From patent publication US12466859B2, “Desmoglein 2 (DSG2) binding proteins and uses therefor” (UNIVERSITY OF WASHINGTON THROUGH ITS CENTER FOR …, priority 2013, dated 2025)
# T1: soluble recombinant DSG2 (Homo sapiens, UniProt Q14126)
# T1 construct: Western blot using soluble recombinant DSG2 as a probe; purchased Leinco Technologies, Inc. (St. Louis, MO)
# T1 sequence (Q14126 50-609 limits assumed): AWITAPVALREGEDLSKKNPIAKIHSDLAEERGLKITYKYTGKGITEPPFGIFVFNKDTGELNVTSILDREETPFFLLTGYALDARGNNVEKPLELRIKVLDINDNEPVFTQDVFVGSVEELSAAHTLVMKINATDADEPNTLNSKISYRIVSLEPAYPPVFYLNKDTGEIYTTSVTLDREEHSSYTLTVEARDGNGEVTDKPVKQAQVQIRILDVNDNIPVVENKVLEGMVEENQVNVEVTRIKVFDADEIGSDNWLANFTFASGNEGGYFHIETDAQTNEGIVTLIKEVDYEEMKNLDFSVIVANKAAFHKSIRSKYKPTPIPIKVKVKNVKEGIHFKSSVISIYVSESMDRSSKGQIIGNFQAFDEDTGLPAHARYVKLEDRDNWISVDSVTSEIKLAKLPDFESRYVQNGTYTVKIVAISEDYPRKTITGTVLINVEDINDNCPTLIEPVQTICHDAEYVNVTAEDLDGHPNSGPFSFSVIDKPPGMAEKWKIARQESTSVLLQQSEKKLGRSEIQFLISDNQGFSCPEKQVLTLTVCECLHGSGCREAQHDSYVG
# B1: D261N (protein)
# chain: MKVSALKEKVSALKEKVSALKEKVSALKEKVSALKEGSGGGSGGGSGGGSNSIALKNNTLWTGPKPEANCIIEYGKQNPDSKLTLILVKNGGIVNGYVTLMGASDYVNTLFKNKNVSINVELYFDATGHILPDSSSLKTDLELKYKQTADFSARGFMPSTTAYPFVLPNAGTHNENYIFGQCYYKASNGALFPLEVTVMLNKRLPDSRTSYVMTFLWSLNAGLAPETTQATLITSPFTFSYIREDD
# Target: T1, soluble recombinant DSG2
# Test: Western blot of dimeric Ad3 fiber knob mutants with soluble recombinant DSG2 as probe
# Format: binding
# Settings: dimerized knob mutants compared to JO-1
# Excerpt: FIG. 1A-1F. Residues found to be critically involved in binding to DSG2. FIG. 1A) Shown are the amino acid sequences of the Ad3 and Ad14p1 fiber knob. Beta sheets present in the Ad3 knob (PDB accession number 1H7Z_A) and Ad14 knob (PDB: 3F0Y_A) are indicated by lines. Black arrows indicate residues within the Ad3 fiber knob which, when mutated individually, ablate or reduce binding to DSG2. […] FIG. 1B) Schematic structure of dimeric Ad3 fiber knob mutants. The fiber knob domain and one shaft motif was fused through a flexible linker to a homodimerizing K-coil domain (41). The proteins are self-dimerizing and can be purified by His-Ni-NTA affinity chromatography. FIG. 1C-FIG. 1F) Analysis of binding of dimeric Ad3 fiber knob mutants to soluble DSG2. FIG. 1C and FIG. 1D) Coomassie staining. 10 μg of purified Ad3 fiber knob (unboiled) were loaded per lane. Trimeric forms of the fiber knobs are indicated by an arrow. The gel contained SDS and the loading buffer containing DTT, which caused the disassembly of dimers of trimeric fiber knobs as previously reported (41). FIG. 1E and FIG. 1F): Western blot using soluble recombinant DSG2 as a probe, followed by anti-DSG2-mAb and anti-mouse IgG-HRP. For comparison, JO-1 (0.5 μg/lane) is shown. The Western blots were scanned and signals were quantified.
# Western Blot: Mini-PROTEAN precast gels (BIO-RAD, Hercules, CA) with 4-15% gradient polyacrylamide were used. A total of 1 μg protein mixed with 2× loading buffer (10 mM Tris-HCl, pH6.8, 200 mM DTT, 4% SDS, 20% glycerol, 0.2% bromophenol blue) was loaded per lane. Samples were either boiled (B) for 5 min or loaded unboiled (UB). The following running buffer was used: 25 mM Tris, pH8.3, 0.192 M glycine, 0.1% SDS. After electrophoresis, proteins were transferred to nitrocellulose and incubated with recombinant human DSG2 protein and anti-DSG2 antibodies as described previously (42). The Western blots were scanned and quantified using the ImageJ 1.32 software (National Institutes of Health, Bethesda, MD). JO-1 band intensity was set as 100%. […]
molecule,measurement,value
B1,"DSG2 binding in Western blot, in words",almost completely ablated
